These results are taken from publication PMC4917879 (Biochemistry, 2016).

The target in series [1] is T1, Formate dehydrogenase from Candida boidinii (CbFDH) ([Candida] boidinii, UniProt A0A0A1EQY0).
T1 sequence (A0A0A1EQY0 1-364): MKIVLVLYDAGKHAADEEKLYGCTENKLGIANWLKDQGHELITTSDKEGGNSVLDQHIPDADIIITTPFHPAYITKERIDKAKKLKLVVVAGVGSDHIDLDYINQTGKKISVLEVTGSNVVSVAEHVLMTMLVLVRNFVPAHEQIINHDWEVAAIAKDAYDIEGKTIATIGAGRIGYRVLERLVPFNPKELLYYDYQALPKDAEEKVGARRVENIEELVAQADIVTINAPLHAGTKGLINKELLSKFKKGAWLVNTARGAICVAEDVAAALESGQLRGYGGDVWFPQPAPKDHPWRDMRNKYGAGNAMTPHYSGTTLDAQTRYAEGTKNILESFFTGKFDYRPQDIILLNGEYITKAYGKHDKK
Briefly: ITC and crystal structure of the ternary complex with azide at […] Å. The format is binding.

Substrate in the series “purified protein”: O=CO
As to the kind of experiment: purified protein. The format is biochemical, [Candida] boidinii. The conditions noted are these: NAD+.

As a reminder, the Kd is the constant that tells how readily two partners part at equilibrium. Consider `NC(=O)c1ccc[n+]([C@@H]2O[C@H](COP(=O)([O-])OP(=O)(O)OC[C@H]3O[C@@H](n4cnc5c(N)ncnc54)[C@H](O)[C@@H]3O)[C@@H](O)[C@H]2O)c1` [NAD+], for which the Kd in series [1] is 92 ± 4 µM.

B1: Formate dehydrogenase from Candida boidinii (CbFDH) ([Candida] boidinii) (protein)
chain: T1 sequence (A0A0A1EQY0 1-364)
The kcat is the number of substrate molecules converted per active site and unit of time at saturation. For orientation: kcat/Km means the turnover number divided by the Michaelis constant. For the molecule B1, in the series “purified protein”, the kcat was 5.6 ± 0.2 s⁻¹ and the catalytic efficiency (kcat/Km) amounted to 1400 ± 200 M⁻¹ s⁻¹.
